Molecular target: T1, IL-2Rα-Biotin (biotin-labeled human IL-2Rα, UniProt P01589 aa22-217, with C-terminal avi tag and His6 tag) (human, UniProt P01589 22-217, biotin on the avi tag (enzymatic labeling with BirA))
T1 construct: Expressed in HEK293-F, monomer peak collected; loaded on SA sensor or used to stain yeast; also called CD25; IL-2Rα receptor
T1 sequence: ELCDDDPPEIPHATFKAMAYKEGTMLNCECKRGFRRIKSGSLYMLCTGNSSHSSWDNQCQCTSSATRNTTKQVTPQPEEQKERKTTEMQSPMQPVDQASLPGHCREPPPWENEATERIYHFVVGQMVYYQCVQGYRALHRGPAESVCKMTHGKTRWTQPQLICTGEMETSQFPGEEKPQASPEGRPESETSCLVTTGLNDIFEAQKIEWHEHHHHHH
Experiment: flow cytometry, yeast-displayed IL-2 stained with IL-2Rα-Biotin
Experimental: Yeast cells comprising a single mutant sequence after sequencing were induced by shaking at 20° C. for 24 h to display IL-2^mutant, and stained together with their receptors IL-2Rα-Biotin and IL-2Rβ IH-Biotin, respectively. The specific steps were as follows: [0191] […] 1. 1×10⁶ cells from each sample were centrifuged to discard the supernatant, and washed with FACS buffer once for later use; [0193] 2. the cells were added to 100 μL of FACS buffer containing 50 nM IL-2Rα-Biotin and Anti Flag antibody, and incubated at room temperature for 30 min; [0194] 3. the mixture was centrifuged at 3000 rpm at 4° C. for 3 min, and washed twice with pre-cooled FACS buffer; [0195] 4. […] 5. after being washed twice with pre-cooled FACS buffer, the cells were resuspended in 100 μL of buffer, and the binding level of IL-2^mutant to IL-2Rα was assayed by a flow cytometer (BD, ACCURI C6). [0197] II. […] 1. 1×10⁶ cells from each sample were centrifuged to discard the supernatant, and washed with FACS buffer once for later use; [0199] 2. the cells were added to 100 μL of FACS buffer containing IL-2Rβ IH-Biotin (30 nM-100 nM) and Anti Flag antibody, and incubated at room temperature for 30 min; [0200] 3. following steps 3-5 described above, the binding level of IL-2′ to IL-2Rβ was assayed.

binding result: no binding (tested: 50 nM IL-2Rα-Biotin)
B1: IL-2^3X displayed on the surface of yeasts (ligand)
chain: APTSSSTKKTQLQLEHLLLDLQMILNGINNYKNPKLTDMLTFEFYMPKKATELKHLQCLERELKPLEEVLNLAQSKNFHLRPRDLISNINVIVLELKGSETTFMCEYADETATIVEFLNRWITFSQSIISTLT
notes: control in the flow cytometry staining

— patent US20230174604A1 (Innovent, published 2023)
